Substrate in the data set: C[N+](C)(C)CC(O)CC(=O)[O-]
Nature of the data set: TP_TRANSPORTER: uptake in Caco-2 cells. Format: functional, cell-based.

B1: Organic cation/carnitine transporter 2 (Homo sapiens) (protein)
chain: MRDYDEVTAFLGEWGPFQRLIFFLLSASIIPNGFTGLSSVFLIATPEHRCRVPDAANLSSAWRNHTVPLRLRDGREVPHSCRRYRLATIANFSALGLEPGRDVDLGQLEQESCLDGWEFSQDVYLSTIVTEWNLVCEDDWKAPLTISLFFVGVLLGSFISGQLSDRFGRKNVLFVTMGMQTGFSFLQIFSKNFEMFVVLFVLVGMGQISNYVAAFVLGTEILGKSVRIIFSTLGVCIFYAFGYMVLPLFAYFIRDWRMLLVALTMPGVLCVALWWFIPESPRWLISQGRFEEAEVIIRKAAKANGIVVPSTIFDPSELQDLSSKKQQSHNILDLLRTWNIRMVTIMSIMLWMTISVGYFGLSLDTPNLHGDIFVNCFLSAMVEVPAYVLAWLLLQYLPRRYSMATALFLGGSVLLFMQLVPPDLYYLATVLVMVGKFGVTAAFSMVYVYTAELYPTVVRNMGVGVSSTASRLGSILSPYFVYLGAYDRFLPYILMGSLTILTAILTLFLPESFGTPLPDTIDQMLRVKGMKHRKTPSHTRMLKDGQERPTILKSTAF
Take B1: the Michaelis-Menten constant (Km) came to 14.1 µM.

Values taken from ChEMBL document CHEMBL2074277, “Expression and localization of organic cation/carnitine transporter OCTN2 in Caco-2 cells” (Am J Physiol Gastrointest Liver Physiol, 2003).
